Target: recombinant His-gH/gL (HCMV), purified (HCMV) (UniProt P12824)
Experiment: BLI

Q: For “EphA2 extracellular domain (27-534), purified (from UniProt P29317 27-534) (domain or fragment)”, which Kd is on record?
A: The Kd was 36.4 nM.

From publication PMC10191332
